Tests used:
Assay in all cases: cell-based or functional assay
[1] = biological target: HIV-1 Env of pseudovirus strain 6545.v4.c1 (HIV-1)
[2] = biological target: HIV-1 Env protein of virus strain 89-F1_2_25 (HIV-1)
[3] = biological target: HIV-1 YU2 Env, wild type (YU2 pseudovirus) (HIV-1) (UniProt P35961)
HIV-1 YU2 Env, wild type (YU2 pseudovirus) (HIV-1), sequence (P35961 32-843 limits assumed): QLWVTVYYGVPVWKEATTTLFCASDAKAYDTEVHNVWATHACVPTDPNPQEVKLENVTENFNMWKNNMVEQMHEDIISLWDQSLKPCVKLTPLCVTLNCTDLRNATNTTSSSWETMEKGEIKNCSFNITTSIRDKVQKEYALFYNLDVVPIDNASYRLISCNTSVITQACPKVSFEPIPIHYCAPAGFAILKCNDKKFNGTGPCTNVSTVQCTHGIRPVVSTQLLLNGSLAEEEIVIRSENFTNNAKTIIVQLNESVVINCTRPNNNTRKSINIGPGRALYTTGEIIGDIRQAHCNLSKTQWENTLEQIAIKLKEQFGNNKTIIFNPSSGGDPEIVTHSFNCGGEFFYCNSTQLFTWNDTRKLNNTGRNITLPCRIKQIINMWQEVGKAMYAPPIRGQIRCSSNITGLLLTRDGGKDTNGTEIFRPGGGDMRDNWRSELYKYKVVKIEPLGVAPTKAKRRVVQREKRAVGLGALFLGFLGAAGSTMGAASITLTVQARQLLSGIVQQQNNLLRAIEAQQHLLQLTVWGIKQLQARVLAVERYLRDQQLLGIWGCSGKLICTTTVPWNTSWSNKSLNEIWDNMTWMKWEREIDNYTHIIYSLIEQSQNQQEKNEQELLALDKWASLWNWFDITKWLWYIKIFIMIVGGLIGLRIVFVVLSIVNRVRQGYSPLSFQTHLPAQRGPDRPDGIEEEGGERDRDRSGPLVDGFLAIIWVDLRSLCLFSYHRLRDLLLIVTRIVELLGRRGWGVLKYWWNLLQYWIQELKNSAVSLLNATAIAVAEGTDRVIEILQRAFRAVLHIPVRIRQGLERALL

With 3BNC117 (antibody) the IC50, TZM-bl pseudovirus neutralization assay [1] was over 20 µg/mL and the IC50, TZM-bl pseudovirus neutralization assay [2] was over 20 µg/mL.
For 8ANC131 (antibody), the IC50, TZM-bl cell neutralization assay [3] was 0.256 µg/mL.
With N6 (antibody) the IC50, TZM-bl pseudovirus neutralization assay [1] was 16.2 µg/mL and the IC50, TZM-bl pseudovirus neutralization assay [2] was over 20 µg/mL.
VRC01 (antibody) showed an IC50, TZM-bl pseudovirus neutralization assay [1] of over 20 µg/mL, an IC50, TZM-bl pseudovirus neutralization assay [2] of over 20 µg/mL and an IC50, TZM-bl cell neutralization assay [3] of 0.107 µg/mL.
VRC07-523-LS (antibody) was tested, and the IC50, TZM-bl pseudovirus neutralization assay [1] was over 20 µg/mL.

Source: US20240376183A1
